Assay [1] deals with T1, Cow serum albumin (cow, UniProt P02769 25-607).
T1 construct: bought; immobilised on a CM5 chip by amine coupling; also called Cow SA
Briefly: SPR, SA on chip, 1:1 fit, 25 C. In general terms: SPR reads the build-up and loss of mass on a sensor chip optically.
Method: (§1) Human SA is obtained from Sigma Aldrich (Cat. No. A8763). […] Mouse SA is obtained from Sigma Aldrich (Cat. No. A3139). Rat SA is obtained from Sigma Aldrich (Cat. No. A4538). Pig SA is obtained from Sigma Aldrich (Cat. No. A4414). […] Cow SA is obtained from Sigma Aldrich (Cat. No. A7030). […] Excess reactive groups on the surfaces (flow cell 1 and 2) are deactivated by injecting 70 μl of 1 M Ethanolamine hydrochloride-NaOH pH 8.5.
(§2) 180 μl of sample are individually injected sequentially across the immobilized SAs on the chip's surface and dissociated for 600 sec at 60 μl/min flow rate at 25° C.

The target of assay [2] is T2, Dog serum albumin (dog, UniProt P49822 25-608).
T2 construct: bought; immobilised on a CM5 chip by amine coupling; also called Dog SA
Briefly: SPR, SA on chip, 1:1 fit, 25 C.
Method: as §1, §2

Assay [3] addresses T3, Pig serum albumin (pig, UniProt P08835 25-607).
T3 construct: bought; immobilised on a CM5 chip by amine coupling; also called Pig SA
The experiment in a line: SPR, SA on chip, 1:1 fit, 25 C.
Method: as §1, §2

Assay [4] addresses T4, Human serum albumin (human, UniProt P02768 25-609).
T4 construct: bought; immobilised on a CM5 chip by amine coupling; also called Human SA
The experiment in a line: SPR, SA on chip, 1:1 fit, 25 C.
Method: as §1, §2

The target of assay [5] is T5, Mouse serum albumin (mouse, UniProt P07724 25-608).
T5 construct: bought; immobilised on a CM5 chip by amine coupling; also called Mouse SA
The experiment in a line: SPR, SA on chip, 1:1 fit, 25 C.
Method: as §1, §2

Assay [6] concerns the target T6, Rat serum albumin (rat, UniProt P02770 25-608).
T6 construct: bought; immobilised on a CM5 chip by amine coupling; also called Rat SA
The experiment in a line: SPR, SA on chip, 1:1 fit, 25 C.
Method: as §1, §2

Assay [7] addresses T7, Cynomolgus monkey serum albumin (cynomolgus monkey, UniProt A2V9Z4 25-608).
T7 construct: bought; immobilised on a CM5 chip by amine coupling; also called Cyno SA
The experiment in a line: SPR, SA on chip, 1:1 fit, 25 C.
Method: as §1, §2

The target in assay [8] is IL-2 receptor-dimer pair of the PathHunter IL-2 BioAssay cells. Briefly: cell-based or functional assay.
Assay [9] addresses T8, Rabbit serum albumin (rabbit, UniProt P49065 25-608).
T8 construct: bought; immobilised on a CM5 chip by amine coupling; also called Rabbit SA
Briefly: SPR, SA on chip, 25 C.
Method: as §1, §2

The target in assay [10] is T1, Cow serum albumin. Briefly: SPR, SA on chip, 1:1 fit, 25 C. The source holds these as a separate data set.
Method: as §1, §2
The target in assay [11] is T2, Dog serum albumin. Briefly: SPR, SA on chip, 1:1 fit, 25 C. The source holds these as a separate data set.
Method: as §1, §2
The target in assay [12] is T3, Pig serum albumin. Briefly: SPR, SA on chip, 1:1 fit, 25 C. This is another data set of the same source.
Method: as §1, §2
Assay [13] deals with T4, Human serum albumin. Briefly: SPR, SA on chip, 1:1 fit, 25 C. The source holds these as a separate data set.
Method: as §1, §2
Assay [14] has as its target T5, Mouse serum albumin. The experiment in a line: SPR, SA on chip, 1:1 fit, 25 C. The source holds these as a separate data set.
Method: as §1, §2
For assay [15], the target named is T6, Rat serum albumin. The experiment in a line: SPR, SA on chip, 1:1 fit, 25 C. The source holds these as a separate data set.
Method: as §1, §2
The target in assay [16] is T7, Cynomolgus monkey serum albumin. Briefly: SPR, SA on chip, 1:1 fit, 25 C. This is another data set of the same source.
Method: as §1, §2
Assay [17] addresses T8, Rabbit serum albumin. The experiment in a line: SPR, SA on chip, 25 C. This is another data set of the same source.
Method: as §1, §2

The term Kd denotes a measure of binding affinity in units of concentration. One may read the koff as the first-order rate constant of dissociation. Usually kon stands for a measure of how fast the partners come together.

Where two headings read alike, the source gives them in different places.

B1: VHH-based fusion of Example 7, VHH fusion 7 (MC6.1C22-(G4Q)5-IL2) (other)
chain: EVQLLESGGGLVQPGGSLRLSCAASGRYIDETAVAWFRQAPGKEREFVAGIGGGVDITYYADSVKGRFTISRDNSKNTLYLQMNSLRPEDTAVYYCAARPGRPLITSKVADLYPYWGQGTLVTVSSGGGGQGGGGQGGGGQGGGGQGGGGQAPQSSSTQQTQLQLEHLLLDLQMILNGINNYKNPKLTRMLTFKFYMPKKATELKHLQCLEEELKPLEEVLNLAQSKNFHLRPRDLISRINVIVLELKGSETTFMCEYADETATIVEFLNRWITFAQSIISTLT
notes: also called Compound 7; VHH-IL-2 fusion
In the case of B1, the Kd in the assay with Cow serum albumin [1] was determined as 78 nM; in the assay with Dog serum albumin [2] it was 1.8 nM; with Pig serum albumin [3] it was 13 nM; with Human serum albumin [4], 0.23 nM; in the assay with Mouse serum albumin [5], 3.9 nM; in the assay with Rat serum albumin [6] it was 3 nM. Also, in assay [7], the Kd is 0.39 nM. Also, the dissociation rate constant (koff) worked out at 0.052 s⁻¹ with Cow serum albumin [1]; 0.0016 s⁻¹ with Dog serum albumin [2]; 0.0058 s⁻¹ with Pig serum albumin [3]; 0.00021 s⁻¹ in the assay with Human serum albumin [4]; 0.0038 s⁻¹ with Mouse serum albumin [5]; 0.0029 s⁻¹ with Rat serum albumin [6]. Besides, the off-rate constant (koff) in [7] stood at 0.00056 s⁻¹. Further, the kon with Cow serum albumin [1] worked out at 670000 M⁻¹ s⁻¹; in the assay with Dog serum albumin [2], 920000 M⁻¹ s⁻¹; with Pig serum albumin [3] it was 450000 M⁻¹ s⁻¹; with Human serum albumin [4] it was 910000 M⁻¹ s⁻¹; with Mouse serum albumin [5] it was 970000 M⁻¹ s⁻¹; with Rat serum albumin [6], 970000 M⁻¹ s⁻¹. The molecule further showed a kon in assay [7] of 1.4e+06 M⁻¹ s⁻¹. Besides, the “EC50 (nM), PathHunter IL-2 BioAssay” value in assay [8] worked out at 0.49 nM. The binding result in the assay with Rabbit serum albumin [9] was “no binding (tested: up to 1000 nM)”.

B2: VHH-based fusion of Example 8, VHH fusion 8 (GLP1-(G4Q)5-MC6.1C22.43) (other)
chain: HGEGTFTSDVSSYLEEQAAKEFIAWLVKGGGGGGGQGGGGQGGGGQGGGGQGGGGQEVQLLESGGGLVQPGGSLRLSCAASGRYIDETAVAWFRQAPGKEREFVAGIGGGVDITYYADSVKGRFTISRDNSKNTLYLQMNSLRPEDTAVYYCAARPGRPLITSKVADLYPYWGQGTLVTVSSPP
notes: also called Compound 8; GLP-1-VHH fusion
B2: the Kd with Cow serum albumin [10] worked out at 120 nM; with Dog serum albumin [11], 5.4 nM; with Pig serum albumin [12] it was 27 nM; in the assay with Human serum albumin [13], 0.15 nM; in the assay with Mouse serum albumin [14] it was 18 nM; in the assay with Rat serum albumin [15], 11 nM. The Kd in assay [16] stood at 0.96 nM. The koff with Cow serum albumin [10] stood at 0.093 s⁻¹; in the assay with Dog serum albumin [11], 0.0038 s⁻¹; in the assay with Pig serum albumin [12], 0.013 s⁻¹; with Human serum albumin [13], 0.00011 s⁻¹; with Mouse serum albumin [14], 0.01 s⁻¹; in the assay with Rat serum albumin [15], 0.0071 s⁻¹. The koff in assay [16] was found to be 0.00087 s⁻¹. Moreover, the kon with Cow serum albumin [10] came to 800000 M⁻¹ s⁻¹; with Dog serum albumin [11], 710000 M⁻¹ s⁻¹; with Pig serum albumin [12], 490000 M⁻¹ s⁻¹; with Human serum albumin [13], 720000 M⁻¹ s⁻¹; with Mouse serum albumin [14], 560000 M⁻¹ s⁻¹; with Rat serum albumin [15], 660000 M⁻¹ s⁻¹. The on-rate (kon) in assay [16] was determined as 910000 M⁻¹ s⁻¹. Also, the binding result in the assay with Rabbit serum albumin [17] is “no binding (tested: up to 1000 nM)”.
